Source: patent publication US20250304667A1 (ALLERGAN, published 2025)
Changes are numbered by the printed parent chain. Where two headings read alike, the source gives them in different places. Each block holds one molecule with its values, some of them ahead of it.

Legend:
[1] = target: Soluble C5b-9 (CompTech, A127) (UniProt P01031); test: BLI (Octet), antibody amine-coupled to AR2G tips, soluble C5b-9 at 30 ug/ml, 300 s association (Example 8)
[2] = target: Soluble C5b-9 (CompTech, A127) (UniProt P01031); test: as above; remark: listed apart in the source
[3] = target: insoluble C5b-9 complex deposited on IgM-coated ELISA plates after complement activation of normal human serum (human) (UniProt P01031); test: ELISA on C5b-9 deposited on IgM-coated plates from 2% normal human serum, anti-mouse HRP, Abs 450nm (Example 7)
[4] = target: T1, human complement Component 5 (C5) (human, UniProt P01031 19-1676, limits assumed); test: cell-based or functional assay
T1 sequence (P01031 19-1676 limits assumed): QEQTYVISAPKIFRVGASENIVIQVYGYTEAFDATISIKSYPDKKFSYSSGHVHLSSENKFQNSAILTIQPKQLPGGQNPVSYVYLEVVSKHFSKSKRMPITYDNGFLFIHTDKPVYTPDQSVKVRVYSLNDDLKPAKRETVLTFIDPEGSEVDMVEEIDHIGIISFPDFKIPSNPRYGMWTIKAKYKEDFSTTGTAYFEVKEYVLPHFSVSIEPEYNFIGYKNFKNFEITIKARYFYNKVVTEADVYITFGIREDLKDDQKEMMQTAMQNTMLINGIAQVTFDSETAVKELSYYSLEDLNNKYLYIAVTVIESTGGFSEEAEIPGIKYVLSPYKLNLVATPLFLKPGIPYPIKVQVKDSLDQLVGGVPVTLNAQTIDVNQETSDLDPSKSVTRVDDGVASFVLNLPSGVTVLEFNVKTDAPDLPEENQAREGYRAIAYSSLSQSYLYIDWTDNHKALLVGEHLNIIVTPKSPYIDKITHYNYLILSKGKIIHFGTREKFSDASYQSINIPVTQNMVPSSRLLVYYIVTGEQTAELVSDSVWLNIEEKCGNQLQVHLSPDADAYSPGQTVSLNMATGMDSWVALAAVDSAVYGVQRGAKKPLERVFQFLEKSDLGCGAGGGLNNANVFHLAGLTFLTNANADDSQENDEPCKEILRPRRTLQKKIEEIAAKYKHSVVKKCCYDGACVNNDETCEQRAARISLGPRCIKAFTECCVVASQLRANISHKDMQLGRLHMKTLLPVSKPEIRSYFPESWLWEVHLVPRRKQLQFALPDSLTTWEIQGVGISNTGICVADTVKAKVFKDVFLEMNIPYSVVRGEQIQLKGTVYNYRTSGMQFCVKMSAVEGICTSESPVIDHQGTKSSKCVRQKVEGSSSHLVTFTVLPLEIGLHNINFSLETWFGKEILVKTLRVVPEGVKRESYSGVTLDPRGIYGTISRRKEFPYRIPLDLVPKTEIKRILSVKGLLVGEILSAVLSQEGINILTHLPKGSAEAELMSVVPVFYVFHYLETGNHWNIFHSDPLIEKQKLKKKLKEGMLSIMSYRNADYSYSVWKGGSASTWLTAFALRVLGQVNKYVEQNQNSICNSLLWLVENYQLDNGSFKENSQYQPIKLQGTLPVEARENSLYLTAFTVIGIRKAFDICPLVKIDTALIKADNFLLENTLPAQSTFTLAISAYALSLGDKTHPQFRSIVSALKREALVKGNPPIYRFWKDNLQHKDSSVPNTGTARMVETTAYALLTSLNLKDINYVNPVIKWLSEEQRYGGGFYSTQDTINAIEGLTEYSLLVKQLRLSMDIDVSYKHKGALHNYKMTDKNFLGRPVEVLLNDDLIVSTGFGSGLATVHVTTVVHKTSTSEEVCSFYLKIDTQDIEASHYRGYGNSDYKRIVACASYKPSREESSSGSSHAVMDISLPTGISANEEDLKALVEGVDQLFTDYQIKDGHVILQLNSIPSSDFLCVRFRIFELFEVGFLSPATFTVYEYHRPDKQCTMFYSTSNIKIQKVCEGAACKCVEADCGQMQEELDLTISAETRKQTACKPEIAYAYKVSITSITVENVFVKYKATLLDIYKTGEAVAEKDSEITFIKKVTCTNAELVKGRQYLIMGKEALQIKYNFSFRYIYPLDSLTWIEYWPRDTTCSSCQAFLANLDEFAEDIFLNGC

[5] = target: T1, human complement Component 5 (C5); test: cell-based or functional assay; remark: listed apart in the source
[6] = target: T1, human complement Component 5 (C5); test: cell-based or functional assay; remark: listed apart in the source
[7] = target: T1, human complement Component 5 (C5); test: cell-based or functional assay; remark: listed apart in the source

B1: H1L3-IgG (antibody, V domains shown)
VH: QVQLVQSGAEVKKPGASVKVSCKASGYTFTDEYMNWVRQAPGQSLEWMGYINPNNGGADYNQKFQGRVTMTVDQSISTAYMELSRLRSDDTAVYFCARLGYSNPYFDFWGQGTLVTVSS
VL: DIVLTQSPSFLSASVGDRVTITCQASQDVNTAVAWYLQKPGKSPKLLIYWASTRHTGVPARFTGSGSGTDYTLTISSLQPEDFAVYFCQQHHVSPWTFGGGTKVEIK
IC50 (read off the curve), % Inhibition [4]: ~3 µg/mL
IC50 (read off the curve), OD (450nM) [5]: ~0.5 µg/mL

B3: H3L3-Fab (Fab, V domains shown)
VH: B1 VH with Q62P, K63S, F64L, Q65K, G66S, M70I, T71S
VL: B1 VL
IC50 (read off the curve), OD (450nM) [7]: ~0.5 µg/mL

B5: H1L4-Fab (Fab, V domains shown)
VH: B1 VH
VL: B1 VL with S9A, F10T, A13L, V15P, D17E, V19A, I21L, T22S, Q24R, L37Q
IC50 (read off the curve), % Inhibition [6]: ~2 µg/mL
IC50 (read off the curve), OD (450nM) [7]: ~0.4 µg/mL

B7: H1L4-IgG (antibody, V domains shown)
VH: B1 VH
VL: B1 VL with S9A, F10T, A13L, V15P, D17E, V19A, I21L, T22S, Q24R, L37Q
IC50 (read off the curve), % Inhibition [4]: ~3 µg/mL
IC50 (read off the curve), OD (450nM) [5]: ~0.5 µg/mL

Next, values leading:

Displacement @ 300s. [1]: 0.86 nm
Displacement @ 300s. [2]: 0.67 nm
EC50 (read off the curve) [3]: 0.04 µg/mL
Molecule: anti-C5b-9 mouse monoclonal antibody (Quidel A239)

IC50 (read off the curve), % Inhibition [6]: ~2 µg/mL
IC50 (read off the curve), OD (450nM) [7]: ~0.4 µg/mL
B2: H5L4-Fab (Fab, V domains shown)
VH: B1 VH with V5K, Q43K
VL: B1 VL with S9A, F10T, A13L, V15P, D17E, V19A, I21L, T22S, Q24R, L37Q

IC50 (read off the curve), % Inhibition [4]: ~3 µg/mL
IC50 (read off the curve), OD (450nM) [5]: ~0.5 µg/mL
B4: H5L4-IgG (antibody, V domains shown)
VH: B1 VH with V5K, Q43K
VL: B1 VL with S9A, F10T, A13L, V15P, D17E, V19A, I21L, T22S, Q24R, L37Q

IC50 (read off the curve), % Inhibition [6]: ~2 µg/mL
IC50 (read off the curve), OD (450nM) [7]: ~0.4 µg/mL
B6: H5L3-Fab (Fab, V domains shown)
VH: B1 VH with V5K, Q43K
VL: B1 VL
